Reference: paper PMC7924230, “Insights into the structure of mature streptavidin C1 from Streptomyces cinnamonensis reveal the self-binding of the extension C-terminal peptide to biotin-binding sites” (IUCrJ, 2021)
Blank lines part the entries; values can stand above or below the molecule they belong to.

What was measured:
[1] = target: streptavidin C1 from Streptomyces cinnamonensis strain KPP02129, recombinant mature form (Streptomyces cinnamonensis); test: SEC-MALS; Superdex 200 10/300 GL, 20 mM Tris-HCl pH 8.0, 100 mM NaCl, 2 mM DTT; 1-2 mg/ml, 0.25 ml injected, 0.8 ml/min
[2] = target: streptavidin C1 from Streptomyces cinnamonensis strain KPP02129, recombinant mature form (Streptomyces cinnamonensis); test: SDS-PAGE (oligomer bands); purified protein in 1x SDS sample buffer (1% SDS, with or without β-mercaptoethanol), incubated 20 min at 25-100°C, with or without biotin
[3] = target: T1, streptavidin C1 (Streptomyces virginiae, UniProt A0ABQ3NKM7); test: microscale thermophoresis (MST), His-tag-labelled protein; assay type: binding
T1 construct: ORF Met1-Glu191 in pET-21a, E. coli BL21; His-tagged (C1-His); mature N-terminus 34-SADPR-38; homotetramer about 76 kDa
T1 sequence (A0ABQ3NKM7 26-191 limits assumed): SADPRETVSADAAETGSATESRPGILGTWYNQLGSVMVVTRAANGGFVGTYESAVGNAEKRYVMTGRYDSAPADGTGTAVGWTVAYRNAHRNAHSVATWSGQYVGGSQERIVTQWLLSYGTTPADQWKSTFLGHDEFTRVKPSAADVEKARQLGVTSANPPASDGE

[4] = target: T2, streptavidin C2 (Streptomyces virginiae, UniProt A0ABQ3NKS0); test: as above; assay type: binding; conditions: read-out: apparent K d
T2 construct: gene Scinn_28310; cloned in pET-21a, E. coli BL21; His-tagged (C2-His); homotetramer about 68 kDa

[5] = target: T3, avidin (Gallus gallus, UniProt P02701); test: thermal unfolding, intrinsic fluorescence […] nm (Tycho NT.[…]); assay type: binding; conditions: PBS-T, 1 mg/ml protein, 4 mg/ml D-biotin
T3 construct: gene AVD; homotetramer
T3 sequence (P02701 25-152): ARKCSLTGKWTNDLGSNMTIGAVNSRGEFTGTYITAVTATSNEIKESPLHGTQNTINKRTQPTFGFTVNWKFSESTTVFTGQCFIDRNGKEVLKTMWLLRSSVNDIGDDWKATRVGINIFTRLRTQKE

[6] = target: streptavidin C2 from Streptomyces cinnamonensis strain KPP02129, recombinant (Streptomyces cinnamonensis); test: SEC-MALS; Superdex 200 10/300 GL, 20 mM Tris-HCl pH 8.0, 100 mM NaCl, 2 mM DTT; 1-2 mg/ml, 0.25 ml injected, 0.8 ml/min
[7] = target: streptavidin C2 from Streptomyces cinnamonensis strain KPP02129, recombinant (Streptomyces cinnamonensis); test: SDS-PAGE (oligomer bands); purified protein in 1x SDS sample buffer (1% SDS, with or without β-mercaptoethanol), incubated 20 min at 25-100°C, with or without biotin
[8] = target: C-terminal deletion mutant ΔC1 of streptavidin C1 (amino acids 1-161) (Streptomyces cinnamonensis); test: MST; Monolith NT.115; 200 nM His-tag-labelled (RED-tris-NTA) ΔC1-His or ΔC2-His, unlabelled peptide 2.4414-80 000 nM, PBS with 0.05% Tween 20, 10 min at room temperature, measured at 25°C, 40% LED power, 60% MST power, triplicate
[9] = target: C-terminal deletion mutant ΔC2 of streptavidin C1 (amino acids 1-158) (Streptomyces cinnamonensis); test: as above

stoichiometry N [1]: 4 | stoichiometry N [2]: 4
Molecule: streptavidin C1 from Streptomyces cinnamonensis strain KPP02129, recombinant mature form (natural protein)

Molecule: O=C(O)CCCC[C@@H]1SC[C@@H]2NC(=O)N[C@@H]21 [D-biotin]
Kd [3]: ~0.00306 nM | Kd [4]: 0.00306 ± 0.0008 nM | T i [5]: streptavidin (green) and avidin (brown) with or without biotin from differential scanning fluorimetry

stoichiometry N [6]: 4 | stoichiometry N [7]: 4
Molecule: streptavidin C2 from Streptomyces cinnamonensis strain KPP02129, recombinant (natural protein)

Kd [8]: 49 nM | Kd [9]: 110 nM
Molecule: LGVTSANPPASDGE [ECP peptide (extension C-terminal peptide) of streptavidin C1]

Kd [8]: 21000 nM | Kd [9]: 7300 nM
Molecule: SAADVEKARQLGVTSANPPASDGE [C-Lid_ECP peptide of streptavidin C1]
